These are literature values, as cited in article PMC4760235.

The series deals with CD161 (Homo sapiens) (UniProt Q12918).
Chain of UniProt Q12918 (Q12918 whole entry): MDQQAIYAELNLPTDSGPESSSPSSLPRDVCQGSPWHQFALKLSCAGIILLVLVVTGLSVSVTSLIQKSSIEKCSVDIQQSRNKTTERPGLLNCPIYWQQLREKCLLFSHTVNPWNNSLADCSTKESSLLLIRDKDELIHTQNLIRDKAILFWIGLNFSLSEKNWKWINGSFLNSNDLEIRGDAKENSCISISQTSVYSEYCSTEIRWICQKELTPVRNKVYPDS

As for LLT1 (from UniProt Q9UHP7), the Kd was 48 µM.
